Residue numbers refer to the chain shown, from its start.
T1: Ala mutant SEQ ID NO: 40 (human)
T1 sequence (peptide): EENMDDQWMQDEMAIGY

T2: Ala mutant SEQ ID NO: 42 (human)
T2 sequence (peptide): EENMDDQWMQDEMEIAY

T3: Ala mutant having 3-amino acid substitution, SEQ ID NO: 44 (human)
T3 sequence (peptide): AAAMDDQWMQDEMEIGY

T4: Ala mutant SEQ ID NO: 33 (human)
T4 sequence (peptide): EENMDDAWMQDEMEIGY

T5: Ala mutant having 3-amino acid substitution, SEQ ID NO: 49 (human)
T5 sequence (peptide): EENMDDQWMQDEMEIAA

T6: Ala mutant SEQ ID NO: 38 (human)
T6 sequence (peptide): EENMDDQWMQDAMEIGY

T7: Ala mutant SEQ ID NO: 37 (human)
T7 sequence (peptide): EENMDDQWMQAEMEIGY

T8: Ala mutant SEQ ID NO: 43 (human)
T8 sequence (peptide): EENMDDQWMQDEMEIGA

T9: Ala mutant SEQ ID NO: 28 (human)
T9 sequence (peptide): EANMDDQWMQDEMEIGY

T10: Ala mutant SEQ ID NO: 31 (human)
T10 sequence (peptide): EENMADQWMQDEMEIGY

T11: Ala mutant SEQ ID NO: 36 (human)
T11 sequence (peptide): EENMDDQWMADEMEIGY

T12: Ala mutant having 3-amino acid substitution, SEQ ID NO: 48 (human)
T12 sequence (peptide): EENMDDQWMQDEAAAGY

T13: Ala mutant having 3-amino acid substitution, SEQ ID NO: 47 (human)
T13 sequence (peptide): EENMDDQWMAAAMEIGY

T14: Ala mutant SEQ ID NO: 41 (human)
T14 sequence (peptide): EENMDDQWMQDEMEAGY

T15: Ala mutant SEQ ID NO: 27 (human)
T15 sequence (peptide): AENMDDQWMQDEMEIGY

T16: Ala mutant SEQ ID NO: 29 (human)
T16 sequence (peptide): EEAMDDQWMQDEMEIGY

T17: TA0096 (peptide antigen corresponding to positions 340 to 356 of PAD4) (human)
T17 sequence (peptide): EENMDDQWMQDEMEIGY

T18: Ala mutant SEQ ID NO: 30 (human)
T18 sequence (peptide): EENADDQWMQDEMEIGY

T19: Ala mutant having 3-amino acid substitution, SEQ ID NO: 46 (human)
T19 sequence (peptide): EENMDDAAAQDEMEIGY

T20: Ala mutant SEQ ID NO: 39 (human)
T20 sequence (peptide): EENMDDQWMQDEAEIGY

T21: Ala mutant SEQ ID NO: 32 (human)
T21 sequence (peptide): EENMDAQWMQDEMEIGY

B1: G8 (antibody, IgG1, V domains shown)
VH: AVTLDESGGGLQTPGGALSLVCKASGFTFSTYAMGWMRQAPGKGLEYVAAIRNDGSWTGYGAAVKGRATILRDNGQSTVRLQLSNLRAEDTGTYYCAKYTGSSGGSIGAWGHGTEVIVS
VL: ASTQPSSVSANLGGTVEITCSGGNRNYYYGWYQQKSPGSAPVTLIYANDKRPSNIPSRFSGSKSGSTGTLTITGVQAEDEAVYFCGTADTGKYVFGAGTTLTVL
B2: A11 (antibody, IgG1, V domains shown)
VH: B1 VH with T28D, T31S, A33G, R67H, L71S, S84N, Y99T, S103R, G108D
VL: ASTQPSSVSANLGGTVEITCSGGGRYYYGWYQQKSPGSAPVTVIYANDKRPSDIPSRFSGSKSGSTGTLTITGVQAEDEAVYFCGSAETSSYVFGAGTTLTVL
B3: H7 (antibody, IgG1, V domains shown)
VH: B1 VH
VL: ASTQPSSVSANPGGTVEITCSGGSGRYYYGWYQQKSPGSAPVTVIYSSTHRPSNIPSRFSGSKSGSTATLTITGVQAEDEAVYFCGTADSSSYVFGAGTTLTVL
B4: E9 (antibody, IgG1, V domains shown)
VH: AVTLDESGGGLQTPGGTLSLVCKGSGFTFSSYGMGWMRQAPGKGLEYVAAIRNDGSWTGYGSAVKGRATISRDNGQSTVRLQLNNLRAEDTATYYCAKTSGSSGGSVDAWGHGTEVIVS
VL: B2 VL
B5: G6 (antibody, IgG1, V domains shown)
VH: B4 VH with T17A, G24A, G35E, M37V, S62A, N74D, V79L, S100T, V107I
VL: B2 VL with G14E, E17K, R25N, V43L, D53N, S86T, E88D, S90G, S91K

Experiments:
[1] = biological target: full-length recombinant mouse PAD4 (mouse) (UniProt Q9Z183); test: ELISA, mouse PAD4 on plate, antibody 0.0039063 ug/mL
Sequence of full-length recombinant mouse PAD4 (mouse) (Q9Z183 whole entry): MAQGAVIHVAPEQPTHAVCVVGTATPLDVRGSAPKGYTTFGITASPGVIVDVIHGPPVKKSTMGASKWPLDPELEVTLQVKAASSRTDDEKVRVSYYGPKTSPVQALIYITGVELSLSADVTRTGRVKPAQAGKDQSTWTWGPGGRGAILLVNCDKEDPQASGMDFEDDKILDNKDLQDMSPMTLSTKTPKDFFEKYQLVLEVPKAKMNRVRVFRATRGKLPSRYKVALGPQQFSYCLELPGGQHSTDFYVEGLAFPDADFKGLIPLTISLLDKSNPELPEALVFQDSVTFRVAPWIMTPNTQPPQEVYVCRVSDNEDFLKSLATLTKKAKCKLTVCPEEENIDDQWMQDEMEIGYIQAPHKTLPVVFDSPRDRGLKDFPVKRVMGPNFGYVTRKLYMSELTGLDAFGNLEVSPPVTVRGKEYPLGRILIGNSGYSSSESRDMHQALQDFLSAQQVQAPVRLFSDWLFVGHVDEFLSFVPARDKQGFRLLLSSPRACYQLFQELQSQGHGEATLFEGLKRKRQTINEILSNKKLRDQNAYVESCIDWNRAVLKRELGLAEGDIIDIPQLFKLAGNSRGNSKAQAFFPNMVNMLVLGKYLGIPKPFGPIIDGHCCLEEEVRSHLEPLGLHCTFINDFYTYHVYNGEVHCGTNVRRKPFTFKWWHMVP

[2] = biological target: full-length recombinant mouse PAD4 (mouse) (UniProt Q9Z183); test: ELISA, mouse PAD4 on plate, antibody 0.0002441 ug/mL
[3] = biological target: T1, Ala mutant SEQ ID NO: 40 (human); test: ELISA, peptide on plate (10 ug/mL)
[4] = biological target: T2, Ala mutant SEQ ID NO: 42 (human); test: ELISA, peptide on plate (10 ug/mL)
[5] = biological target: T3, Ala mutant having 3-amino acid substitution, SEQ ID NO: 44 (human); test: ELISA, peptide on plate (10 ug/mL)
[6] = biological target: T4, Ala mutant SEQ ID NO: 33 (human); test: ELISA, peptide on plate (10 ug/mL)
[7] = biological target: T5, Ala mutant having 3-amino acid substitution, SEQ ID NO: 49 (human); test: ELISA, peptide on plate (10 ug/mL)
[8] = biological target: T6, Ala mutant SEQ ID NO: 38 (human); test: ELISA, peptide on plate (10 ug/mL)
[9] = biological target: T7, Ala mutant SEQ ID NO: 37 (human); test: ELISA, peptide on plate (10 ug/mL)
[10] = biological target: T8, Ala mutant SEQ ID NO: 43 (human); test: ELISA, peptide on plate (10 ug/mL)
[11] = biological target: T9, Ala mutant SEQ ID NO: 28 (human); test: ELISA, peptide on plate (10 ug/mL)
[12] = biological target: T10, Ala mutant SEQ ID NO: 31 (human); test: ELISA, peptide on plate (10 ug/mL)
[13] = biological target: T11, Ala mutant SEQ ID NO: 36 (human); test: ELISA, peptide on plate (10 ug/mL)
[14] = biological target: T12, Ala mutant having 3-amino acid substitution, SEQ ID NO: 48 (human); test: ELISA, peptide on plate (10 ug/mL)
[15] = biological target: T13, Ala mutant having 3-amino acid substitution, SEQ ID NO: 47 (human); test: ELISA, peptide on plate (10 ug/mL)
[16] = biological target: T14, Ala mutant SEQ ID NO: 41 (human); test: ELISA, peptide on plate (10 ug/mL)
[17] = biological target: T15, Ala mutant SEQ ID NO: 27 (human); test: ELISA, peptide on plate (10 ug/mL)
[18] = biological target: T16, Ala mutant SEQ ID NO: 29 (human); test: ELISA, peptide on plate (10 ug/mL)
[19] = biological target: T17, TA0096 (peptide antigen corresponding to positions 340 to 356 of PAD4) (human); test: ELISA, peptide on plate (10 ug/mL)
[20] = biological target: T18, Ala mutant SEQ ID NO: 30 (human); test: ELISA, peptide on plate (10 ug/mL)
[21] = biological target: T19, Ala mutant having 3-amino acid substitution, SEQ ID NO: 46 (human); test: ELISA, peptide on plate (10 ug/mL)
[22] = biological target: T20, Ala mutant SEQ ID NO: 39 (human); test: ELISA, peptide on plate (10 ug/mL)
[23] = biological target: full-length recombinant mouse PAD4 (mouse) (UniProt Q9Z183); test: ELISA, mouse PAD4 on plate, antibody 6.104E-05 ug/mL
[24] = biological target: full-length recombinant mouse PAD4 (mouse) (UniProt Q9Z183); test: ELISA, mouse PAD4 on plate, antibody 1 ug/mL
[25] = biological target: full-length recombinant mouse PAD4 (mouse) (UniProt Q9Z183); test: ELISA, mouse PAD4 on plate, antibody 0.0009766 ug/mL
[26] = biological target: full-length recombinant mouse PAD4 (mouse) (UniProt Q9Z183); test: ELISA, mouse PAD4 on plate, antibody 0.0625 ug/mL
[27] = biological target: full-length recombinant mouse PAD4 (mouse) (UniProt Q9Z183); test: ELISA, mouse PAD4 on plate, antibody 0.25 ug/mL
[28] = biological target: full-length recombinant mouse PAD4 (mouse) (UniProt Q9Z183); test: ELISA, mouse PAD4 on plate, antibody 0.015625 ug/mL
[29] = biological target: T21, Ala mutant SEQ ID NO: 32 (human); test: ELISA, peptide on plate (10 ug/mL)

| Binder | absorbance 490 nm/630 nm [1] | absorbance 490 nm/630 nm [2] | absorbance 490 nm/630 nm [3] | absorbance 490 nm/630 nm [4] | absorbance 490 nm/630 nm [5] | absorbance 490 nm/630 nm [6] | absorbance 490 nm/630 nm [7] | absorbance 490 nm/630 nm [8] | absorbance 490 nm/630 nm [9] | absorbance 490 nm/630 nm [10] | absorbance 490 nm/630 nm [11] | absorbance 490 nm/630 nm [12] | absorbance 490 nm/630 nm [13] | absorbance 490 nm/630 nm [14] | absorbance 490 nm/630 nm [15] | absorbance 490 nm/630 nm [16] | absorbance 490 nm/630 nm [17] | absorbance 490 nm/630 nm [18] | absorbance 490 nm/630 nm [19] | absorbance 490 nm/630 nm [20] | other results |
| --- | --- | --- | --- | --- | --- | --- | --- | --- | --- | --- | --- | --- | --- | --- | --- | --- | --- | --- | --- | --- | --- |
| B1 | 1.42 OD | 0.205 OD | 1.89 OD | 1.86 OD | 1.9 OD | 1.98 OD | 1.86 OD | 1.91 OD | 1.88 OD | 1.92 OD | 1.94 OD | 1.85 OD | 1.92 OD | 1.88 OD | 1.86 OD | 1.85 OD | 1.96 OD | 1.91 OD | 1.88 OD | 1.93 OD | absorbance 490 nm/630 nm [21]: 0.178 OD; absorbance 490 nm/630 nm [22]: 1.88 OD; absorbance 490 nm/630 nm [23]: 0.122 OD; absorbance 490 nm/630 nm [24]: 2.26 OD; absorbance 490 nm/630 nm [25]: 0.555 OD; absorbance 490 nm/630 nm [26]: 2.22 OD; absorbance 490 nm/630 nm [27]: 2.25 OD; absorbance 490 nm/630 nm [28]: 2.25 OD |
| B2 | 1.07 OD | 0.152 OD | 1.85 OD | 1.88 OD | 1.98 OD | 2.09 OD | 1.89 OD | 1.89 OD | 1.8 OD | 1.92 OD | 2 OD | 1.67 OD | 1.91 OD | 1.87 OD | 1.25 OD | 1.85 OD | 1.95 OD | 2.05 OD | 1.81 OD | 2.03 OD | absorbance 490 nm/630 nm [29]: 0.628 OD; absorbance 490 nm/630 nm [22]: 1.89 OD; absorbance 490 nm/630 nm [23]: 0.045 OD; absorbance 490 nm/630 nm [24]: 2.24 OD; absorbance 490 nm/630 nm [25]: 0.386 OD; absorbance 490 nm/630 nm [26]: 2.24 OD; absorbance 490 nm/630 nm [27]: 2.25 OD; absorbance 490 nm/630 nm [28]: 2.02 OD |
| B3 | 1.41 OD | 0.224 OD | 1.86 OD | 1.85 OD | 1.9 OD | 1.87 OD | 1.86 OD | 1.99 OD | 1.86 OD | 1.87 OD | 1.95 OD | 0.462 OD | 1.87 OD | 1.87 OD | 1.67 OD | 1.83 OD | 1.9 OD | 1.9 OD | 1.82 OD | 1.95 OD | absorbance 490 nm/630 nm [22]: 1.81 OD; absorbance 490 nm/630 nm [23]: 0.103 OD; absorbance 490 nm/630 nm [24]: 2.3 OD; absorbance 490 nm/630 nm [25]: 0.55 OD; absorbance 490 nm/630 nm [26]: 2.29 OD; absorbance 490 nm/630 nm [27]: 2.31 OD; absorbance 490 nm/630 nm [28]: 2.26 OD |
| B4 | 0.956 OD | 0.122 OD | 1.82 OD | 1.83 OD | 1.9 OD | 1.93 OD | 1.85 OD | 1.91 OD | 1.2 OD | 1.88 OD | 2 OD | 1.38 OD | 1.9 OD | 1.81 OD | 1.34 OD | 1.8 OD | 1.89 OD | 1.92 OD | 1.79 OD | 1.91 OD | absorbance 490 nm/630 nm [29]: 0.177 OD; absorbance 490 nm/630 nm [22]: 1.77 OD; absorbance 490 nm/630 nm [23]: 0.051 OD; absorbance 490 nm/630 nm [24]: 2.23 OD; absorbance 490 nm/630 nm [25]: 0.416 OD; absorbance 490 nm/630 nm [26]: 2.19 OD; absorbance 490 nm/630 nm [27]: 2.23 OD; absorbance 490 nm/630 nm [28]: 1.86 OD |
| B5 | 0.55 OD | 0.071 OD | 1.86 OD | 1.87 OD | 1.92 OD | 1.98 OD | 1.88 OD | 1.92 OD | 1.85 OD | 1.87 OD | 1.99 OD | 1.77 OD | 1.85 OD | 1.85 OD | 1.73 OD | 1.87 OD | 1.91 OD | 1.95 OD | 1.87 OD | 1.92 OD | absorbance 490 nm/630 nm [22]: 1.83 OD; absorbance 490 nm/630 nm [23]: 0.044 OD; absorbance 490 nm/630 nm [24]: 2.27 OD; absorbance 490 nm/630 nm [25]: 0.2 OD; absorbance 490 nm/630 nm [26]: 2.16 OD; absorbance 490 nm/630 nm [27]: 2.27 OD; absorbance 490 nm/630 nm [28]: 1.35 OD |

Source: patent publication US20230192890A1
